Drawing on paper PMC7893823, this text covers response for two substances.

Experiment [1] addresses human SET8 (KMT5A Isoform 2), Q9NQR1-2. As to the kind of experiment: gel shift assay. The following applies: NCPapd 0.52 µM, dsDNA 50-mer competitor DNA included, read off a plot. On the technique in general: In EMSA bound probe runs differently from free probe, usually more slowly.
The target in experiment [2] is nucleosome core particle (NCP) with human histones H2A, H2B, H3.1 and H4 and the 145-base pair Widom 601 DNA, P04908;P06899;P68431;P62805. As to the kind of experiment: gel shift assay. The conditions noted are these: NCP 0.52 µM, dsDNA 50-mer competitor DNA included, read off a plot.

Chain of human SET8 (KMT5A Isoform 2), Q9NQR1-2 (Q9NQR1 whole entry, looked up, canonical isoform): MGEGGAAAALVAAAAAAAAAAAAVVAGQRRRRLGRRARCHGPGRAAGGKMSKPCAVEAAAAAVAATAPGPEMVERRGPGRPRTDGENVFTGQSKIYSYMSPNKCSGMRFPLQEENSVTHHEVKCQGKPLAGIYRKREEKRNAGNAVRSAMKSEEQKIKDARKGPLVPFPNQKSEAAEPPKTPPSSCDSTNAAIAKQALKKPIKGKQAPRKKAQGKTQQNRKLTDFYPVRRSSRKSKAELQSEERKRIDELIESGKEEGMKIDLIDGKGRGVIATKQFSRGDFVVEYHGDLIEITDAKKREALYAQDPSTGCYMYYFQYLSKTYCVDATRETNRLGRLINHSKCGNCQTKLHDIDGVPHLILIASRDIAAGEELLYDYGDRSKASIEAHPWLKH

In the case of “nucleosome core particle (NCP) with human histones H2A, H2B, H3.1 and H4 and the 145-base pair Widom 601 DNA (from UniProt P04908;P06899;P68431;P62805) H2A:E56T; H2A:E61T; H2A:E64T; H2A:D90S; H2A:E91T; H2A:E92T; H2B:E105T; H2B:E113T”, the response in experiment [1] (SET8 1.0 µM, parent: est. 61) came out at 4.5%; in experiment [1] (SET8 2.1 µM, parent: est. 91) it was 13%.
As for “human SET8 (KMT5A Isoform 2) (from UniProt Q9NQR1-2) R188A; R192A”, the response in experiment [2] (SET8 R188A/R192A 1.0 µM, parent: est. 61) was 23%; in experiment [2] (SET8 R188A/R192A 2.1 µM, parent: est. 91) it was 54%.
